From patent US20060148017A1 (published 2006)
Changes are numbered by the printed parent chain.

Key:
Zip 1 = tested on: T1, Zip 1
T1 sequence: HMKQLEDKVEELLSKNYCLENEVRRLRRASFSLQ

Zip4T = tested on: T2, Zip4T
T2 sequence: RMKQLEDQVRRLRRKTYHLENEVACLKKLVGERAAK

Zip 2 = tested on: T3, Zip 2
T3 sequence: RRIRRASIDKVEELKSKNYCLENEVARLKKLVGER

Zip4S = tested on: T4, Zip4S
T4 sequence: T2 sequence with T16S

[1] = molecular target: the molecule itself; assay: circular dichroism thermal denaturation (self-association of unmodified Zip4S is implied)
Method: The circular dichroism (measured in units of ellipticity) of proteins at 222 nm provides a measure of the amount of α-helix present in the structure, with a large, negative ellipticity indicting a high level of helicity. […] In all experiments described herein, peptide concentration was determined by tyrosine absorbance at 280 nm in 6M GuHCl.

Which “phosphorylation by reverse-phase HPLC and radioactive assay” value (Zip 1) does the source give for protein kinase A (PKA) here?
Its value is “The peptides were both shown to be good substrates for PKA by reverse-phase HPLC and radioactive assay”.

What about the “timecourse of phosphorylation (32P incorporation)” value (Zip4T) of the same molecule?
Its value is “Zip4T is also phosphorylated, but at a slower rate, with full phosphorylation achieved in 30 minutes in this assay”.

And the “phosphorylation by reverse-phase HPLC and radioactive assay” value (Zip 2)?
The value was “The peptides were both shown to be good substrates for PKA by reverse-phase HPLC and radioactive assay”.

How did the “timecourse of phosphorylation (32P incorporation)” value (Zip4S) turn out when “Ca2+/Calmodulin-dependent Protein Kinase (CaMKII)” was run?
Its value is “CaMKII was unable to phosphorylate Zip4S”.

Does RMKQLEDQVRRLRRKSYHLENEVACLKKLVGERAAK (GCN4 numbering)) [Zip4S] bind [1]?
Result: binds
